# Article PMC8032985, “The Interaction Mechanism of Intrinsically Disordered PP2A Inhibitor Proteins ARPP-16 and ARPP-19 With PP2A” (Frontiers in Molecular Biosciences, 2021)
# B1: PP2A regulatory subunit B56δ (natural protein)
# chain: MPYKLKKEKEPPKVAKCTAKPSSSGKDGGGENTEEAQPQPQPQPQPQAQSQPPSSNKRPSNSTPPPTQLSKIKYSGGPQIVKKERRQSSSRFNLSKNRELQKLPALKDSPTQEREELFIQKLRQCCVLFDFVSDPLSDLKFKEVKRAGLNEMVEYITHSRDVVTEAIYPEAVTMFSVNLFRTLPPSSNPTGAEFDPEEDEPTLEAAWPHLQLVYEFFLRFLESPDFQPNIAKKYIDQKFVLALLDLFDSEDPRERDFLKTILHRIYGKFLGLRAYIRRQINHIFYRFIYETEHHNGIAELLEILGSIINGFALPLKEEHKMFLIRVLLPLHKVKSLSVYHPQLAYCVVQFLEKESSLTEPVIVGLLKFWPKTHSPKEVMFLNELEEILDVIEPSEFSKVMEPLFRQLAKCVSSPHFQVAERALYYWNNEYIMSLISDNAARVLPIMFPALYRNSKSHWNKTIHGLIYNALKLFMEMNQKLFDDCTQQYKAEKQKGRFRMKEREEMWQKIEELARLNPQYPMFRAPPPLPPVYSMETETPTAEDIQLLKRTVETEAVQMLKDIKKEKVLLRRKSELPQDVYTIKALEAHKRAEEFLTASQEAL
# modifications: NT-647-NHS fluorescent dye (Monolith NT Protein labeling kit red NHS)
# B2: PP2A regulatory subunit B56ε (natural protein)
# chain: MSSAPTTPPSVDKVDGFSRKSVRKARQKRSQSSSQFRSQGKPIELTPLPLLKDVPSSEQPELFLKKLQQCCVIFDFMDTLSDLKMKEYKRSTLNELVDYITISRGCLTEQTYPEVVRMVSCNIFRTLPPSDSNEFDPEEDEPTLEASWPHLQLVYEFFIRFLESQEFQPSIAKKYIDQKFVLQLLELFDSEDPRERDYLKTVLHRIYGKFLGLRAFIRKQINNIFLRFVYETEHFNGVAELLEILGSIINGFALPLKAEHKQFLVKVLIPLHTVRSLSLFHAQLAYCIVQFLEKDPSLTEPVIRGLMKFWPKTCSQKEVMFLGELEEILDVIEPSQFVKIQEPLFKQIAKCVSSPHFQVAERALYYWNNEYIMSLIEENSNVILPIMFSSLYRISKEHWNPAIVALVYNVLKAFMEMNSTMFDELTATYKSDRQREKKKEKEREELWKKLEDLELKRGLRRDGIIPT
# modifications: NT-647-NHS fluorescent dye (Monolith NT Protein labeling kit red NHS)
# Legend:
# Assay in all cases: MST; NT-647-NHS-labelled PP2A subunit at 20 nM as target, 12-point twofold dilution series of unlabelled ARPP as ligand; SEC buffer with 0.05% Tween-20; triplicate; single-site binding model
# Conditions in all cases: both partners purified
# [1] = target: B1
# [2] = target: B2
# [3] = target: PP2A regulatory subunit B56α (NT-647-NHS fluorescent dye (Monolith NT Protein labeling kit red NHS))
# [4] = target: T1, PP2A regulatory subunit B56γ (NT-647-NHS fluorescent dye (Monolith NT Protein labeling kit red NHS))
# T1 construct: one residue left at the N-terminus after TEV cleavage; PP2A regulatory subunit B56γ, UniProt Q13362-1; source: E. coli BL21 Gold, purified (glutathione agarose, TEV cleavage, SEC); not shown: GST, N-terminal, cleaved
# [5] = target: T2, PP2A scaffolding subunit PR65α, full length (UniProt P30153 1-589, NT-647-NHS fluorescent dye (Monolith NT Protein labeling kit red NHS) in the MST; unlabelled in the NMR titration)
# T2 construct: PP2A scaffolding subunit PR65α, full length; pGTvL1-SGC vector, expressed and purified as the ARPP proteins; also called PP2A A-subunit; A-subunit; source: E. coli BL21 Gold, purified (glutathione agarose, TEV cleavage, SEC); not shown: GST, N-terminal, cleaved
# [6] = target: T3, ARPP-16 (splice variant of ARPP-19), wild type (human, 15N-labelled in the NMR titration)
# T3 construct: one residue left at the N-terminus after TEV cleavage; human ARPP-16, splice variant of ARPP-19 lacking its first 16 residues, UniProt P56211-2; numbers count on: ARPP-16 (P56211-2); pGTvL1-SGC vector; also called ARPP-16 WT; source: E. coli BL21 Gold, purified (glutathione agarose, TEV cleavage, SEC); not shown: GST, N-terminal, cleaved
# [7] = target: T4, ARPP-16 S46E phosphomimicking mutant (human)
# T4 construct: one residue left at the N-terminus after TEV cleavage; human ARPP-16, UniProt P56211-2, with S46E; numbers count on: ARPP-16 (P56211-2); source: E. coli BL21 Gold, purified (glutathione agarose, TEV cleavage, SEC); not shown: GST, N-terminal, cleaved
# [8] = target: T5, ARPP-16 S88E phosphomimicking mutant (human)
# T5 construct: one residue left at the N-terminus after TEV cleavage; human ARPP-16, UniProt P56211-2, with S88E; numbers count on: ARPP-16 (P56211-2); source: E. coli BL21 Gold, purified (glutathione agarose, TEV cleavage, SEC); not shown: GST, N-terminal, cleaved
# T5 sequence (Q14738 whole entry S88E): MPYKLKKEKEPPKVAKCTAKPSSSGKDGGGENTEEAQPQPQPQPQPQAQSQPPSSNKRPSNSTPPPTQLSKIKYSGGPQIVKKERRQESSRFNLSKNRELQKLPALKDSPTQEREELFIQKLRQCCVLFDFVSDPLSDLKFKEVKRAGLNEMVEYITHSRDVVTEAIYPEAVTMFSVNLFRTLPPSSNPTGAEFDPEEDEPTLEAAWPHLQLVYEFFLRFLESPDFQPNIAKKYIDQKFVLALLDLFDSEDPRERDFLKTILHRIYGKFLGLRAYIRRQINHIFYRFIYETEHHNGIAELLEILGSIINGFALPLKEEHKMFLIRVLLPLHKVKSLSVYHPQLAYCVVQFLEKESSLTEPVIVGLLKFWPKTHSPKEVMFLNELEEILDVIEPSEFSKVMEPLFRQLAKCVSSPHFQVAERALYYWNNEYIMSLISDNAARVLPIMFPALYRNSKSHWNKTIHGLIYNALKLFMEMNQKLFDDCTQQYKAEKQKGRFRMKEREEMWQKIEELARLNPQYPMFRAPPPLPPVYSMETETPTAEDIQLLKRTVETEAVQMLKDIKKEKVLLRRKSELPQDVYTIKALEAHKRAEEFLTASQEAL
# T2 sequence (P30153 whole entry): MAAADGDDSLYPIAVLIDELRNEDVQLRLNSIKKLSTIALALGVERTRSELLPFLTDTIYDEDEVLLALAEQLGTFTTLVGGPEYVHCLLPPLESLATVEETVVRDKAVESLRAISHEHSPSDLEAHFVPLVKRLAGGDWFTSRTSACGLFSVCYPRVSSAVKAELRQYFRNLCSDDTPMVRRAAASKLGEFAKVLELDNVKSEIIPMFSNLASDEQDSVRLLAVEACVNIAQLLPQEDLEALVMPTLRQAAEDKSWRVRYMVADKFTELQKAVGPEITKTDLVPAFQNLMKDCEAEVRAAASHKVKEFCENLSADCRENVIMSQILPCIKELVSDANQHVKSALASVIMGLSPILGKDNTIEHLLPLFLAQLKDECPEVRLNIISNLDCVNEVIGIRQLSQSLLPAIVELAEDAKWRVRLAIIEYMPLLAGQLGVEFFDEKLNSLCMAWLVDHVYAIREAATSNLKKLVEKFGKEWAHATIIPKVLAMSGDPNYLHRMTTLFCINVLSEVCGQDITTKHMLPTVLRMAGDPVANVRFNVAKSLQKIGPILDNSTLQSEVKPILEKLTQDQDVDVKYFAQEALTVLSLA
# T1 sequence (Q13362 whole entry): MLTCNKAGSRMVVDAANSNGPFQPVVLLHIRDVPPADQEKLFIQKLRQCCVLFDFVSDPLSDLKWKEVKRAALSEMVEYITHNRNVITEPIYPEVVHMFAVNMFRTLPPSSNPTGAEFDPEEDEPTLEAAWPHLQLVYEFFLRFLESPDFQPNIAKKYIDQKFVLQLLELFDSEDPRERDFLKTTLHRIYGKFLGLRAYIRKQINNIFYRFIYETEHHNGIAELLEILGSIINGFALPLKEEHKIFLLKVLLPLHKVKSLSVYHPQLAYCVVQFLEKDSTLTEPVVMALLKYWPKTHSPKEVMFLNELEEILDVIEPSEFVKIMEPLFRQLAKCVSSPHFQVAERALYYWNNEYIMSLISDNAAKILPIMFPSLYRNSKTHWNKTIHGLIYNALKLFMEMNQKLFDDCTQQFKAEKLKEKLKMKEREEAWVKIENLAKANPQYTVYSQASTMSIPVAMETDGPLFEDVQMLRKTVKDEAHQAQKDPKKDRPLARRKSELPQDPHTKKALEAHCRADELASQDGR
Binder,Kd [1] [µM],Kd [2] [µM],Kd [3] [µM],Kd [4] [µM],Kd [5] [µM],Kd [6] [µM],Kd [7] [µM],Kd [8] [µM]
"cAMP-regulated phosphoprotein 19 (ARPP-19), wild type (natural protein, 15N-labelled in the NMR titration) MSAEVPEAASAEEQKEMEDKVTSPEKAEEAKLKARYPHLGQKPGGSDFLRKRLQKGQKYFDSGDYNMAKAKMKNKQLPTAAPDKTEVTGDHIPTPQDLPQRKPSLVASKLAG",430,> 800,470,> 1300,7.9,,,
ARPP-19 S104E phosphomimicking mutant (natural protein) MSAEVPEAASAEEQKEMEDKVTSPEKAEEAKLKARYPHLGQKPGGSDFLRKRLQKGQKYFDSGDYNMAKAKMKNKQLPTAAPDKTEVTGDHIPTPQDLPQRKPELVASKLAG,195,,85,320,6.1,,,
B1,,,,,,> 700,110,40.7
B2,,,,,,> 500,250,
ARPP-19 S62E phosphomimicking mutant (natural protein) MSAEVPEAASAEEQKEMEDKVTSPEKAEEAKLKARYPHLGQKPGGSDFLRKRLQKGQKYFDEGDYNMAKAKMKNKQLPTAAPDKTEVTGDHIPTPQDLPQRKPSLVASKLAG,95,> 700,110,195,7.5,,,
